Where a chain is given by its changes, count along the chain named.
B1: anti-MSLN single domain antibody clone 394556 (VHH)
VHH: QLQLQESGPGLVKPSETLSLTCTVSGGSISNSYYWGWIRQPPGKGLEWIGSIYHSGNTYYNPSLKSRVTISVDTSKNQFSLKLSSVTAADTAVYYCVTQDGVGATTTEEYWGQGTLVTVSS
notes: Human VH single domain antibody; It was captured on anti-hIgG Fc (AHC) sensors, so it apparently carried a human Fc
B2: anti-MSLN single domain antibody clone 394582 (VHH)
VHH: B1 VHH with V97T, D100N
notes: Human VH single domain antibody; It was captured on anti-hIgG Fc sensors
B3: anti-MSLN single domain antibody clone 392026 (VHH)
VHH: B1 VHH with V97T, T98S
B4: anti-MSLN single domain antibody clone 394541 (VHH)
VHH: B1 VHH with I70M, V97T, T98S
notes: as for B2
B5: anti-MSLN single domain antibody clone 394567 (VHH)
VHH: B1 VHH with H54Y, N57S, T58I, Y59H, V97T, T98S
notes: Human VH single domain antibody; Tested as antibody-containing supernatant
B6: anti-MSLN single domain antibody clone 394573 (VHH)
VHH: B1 VHH with V97A, D100N
notes: as for B5
B7: anti-MSLN single domain antibody clone 394606 (VHH)
VHH: B1 VHH with N31S, V97A, D100N
notes: as for B5
B8: anti-MSLN single domain antibody clone 394607 (VHH)
VHH: B1 VHH with H54Y, N57S, K82S, S84N, V97A
notes: as for B5
B9: anti-MSLN single domain antibody clone 394610 (VHH)
VHH: B1 VHH with N31S, V97T, T98S
notes: as for B5

Target: T1, human MSLN expressed on CHO cells (human, UniProt Q13421 296-598)
T1 construct: whole, on cells; also called CHO-huMSLN
Test: flow cytometry dose curve on CHO cells expressing human MSLN
Description: Cell-binding dose curves for example anti-MSLN single domain antibodies described herein were performed using CHO cells expressing human MSLN (FIG. 1A), HeLa cells (FIG. 1B), and CHO-OFFtgt cells (FIG. 1C). The single domain antibodies were tested at a starting concentration of 150 nM, followed by 3-fold serial dilutions for an 8-point dose curve. All washes and dilutions of cells, antibodies, and reagents were performed using flow buffer (1X phosphate buffered saline (PBS), 1% bovine serum albumin (BSA), and 0.1% NaN₃). Cells were pelleted and resuspended at 1 × 10⁶ cells/mL in flow buffer. Then, 50 µL cells were combined with 50 µL of test antibody and incubated 30 minutes at 4° C., followed by two wash steps with flow buffer. Cells were then resuspended in 50 µL PE-conjugated secondary diluted to 1.25 µg/mL (Southern Biotech #2042-09) and incubated for 20 minutes at 4° C. After two wash steps, cells were resuspended in flow buffer and analyzed using a BD Celesta system. PE mean fluorescence intensity was plotted as a fold over background (cells incubated with secondary detection antibody only).
To determine cell binding EC50 values for example anti-MSLN single domain antibodies of the present disclosure, cell binding dose curves were performed on HeLa cells and CHO cells expressing human MSLN. […]

T1 sequence (Q13421 other isoform, or with tags, fused parts or gaps limits assumed): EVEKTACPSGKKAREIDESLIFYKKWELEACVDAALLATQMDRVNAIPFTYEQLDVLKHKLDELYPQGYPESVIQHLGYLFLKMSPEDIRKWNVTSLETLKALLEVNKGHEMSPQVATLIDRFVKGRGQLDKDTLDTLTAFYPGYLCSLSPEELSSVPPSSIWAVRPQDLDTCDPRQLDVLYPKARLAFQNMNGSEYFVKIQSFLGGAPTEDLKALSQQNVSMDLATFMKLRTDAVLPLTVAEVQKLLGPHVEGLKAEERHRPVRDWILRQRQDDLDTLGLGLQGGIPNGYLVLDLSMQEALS

Binder	EC50 [nM]
B1	2.9
B2	2.2

Target: MSLN on HeLa cells (human) (UniProt Q13421)
Test: flow cytometry dose curve on HeLa cells

Binder	EC50 [nM]
B1	2.5
B2	1.3
B3	9.8

Target: T2, recombinant human MSLN (R&D Systems, #3265-MS) (human, UniProt Q13421 296-580, limits assumed)
T2 construct: Bought protein; also called antigen
Test: BLI (Octet HTX), antibody on AHC sensor, antigen in solution, 1:1 model
Description: Table E3 summarizes affinity and epitope bin information for example anti-MSLN single domain antibodies of the present disclosure. The affinity of each single domain antibody to recombinant human MSLN (R&D Systems, #3265-MS) was measured by Bio-layer interferometry (BLI) using an Octet HTX. AHC (Anti-hIgG Fc Capture) sensors were used to immobilize test antibody at 5 µg/mL. After baseline readings, sensors were dipped into antigen solutions (starting at 500 nM followed by a 7-point, 2-fold dilution series). Association and dissociation were measured for 180 and 240 seconds respectively. Data were analyzed with Octet Data Analysis v11.0 HT (ForteBio) using a standard 1:1 binding model. Epitope bins for the single domain antibodies were determined by an in-tandem competition BLI binding experiment using an Octet HTX. The antigen (5 µg/mL) was loaded on the sensor Ni-NTA sensor followed by a baseline in kinetic buffer. The antigen coated sensor was then dipped into a saturating concentration Antibody 1. A second baseline was now set for 300 sec. Then the antigen-antibody 1 complex was dipped into Antibody 2 solution for 180 sec and then allowed to dissociate.

T2 sequence (Q13421 other isoform, or with tags, fused parts or gaps limits assumed): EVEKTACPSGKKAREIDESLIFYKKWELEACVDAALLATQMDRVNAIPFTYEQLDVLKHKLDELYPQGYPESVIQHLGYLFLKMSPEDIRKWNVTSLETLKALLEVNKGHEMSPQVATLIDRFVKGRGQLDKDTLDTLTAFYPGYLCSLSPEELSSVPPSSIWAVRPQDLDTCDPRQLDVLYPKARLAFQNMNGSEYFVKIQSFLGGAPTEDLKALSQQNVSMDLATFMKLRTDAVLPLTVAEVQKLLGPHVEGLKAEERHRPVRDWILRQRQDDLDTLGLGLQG

Binder	Kd [nM]
B1	90.4
B4	3800
B2	220

Target: T1, human MSLN expressed on CHO cells
Test: flow cytometry, antibody supernatant on CHO cells expressing human MSLN
Description: Pelleted CHO cells were resuspended in flow buffer (1X phosphate buffered saline (PBS), 1% bovine serum albumin (BSA), and 0.1% NaN₃) at 1.25 × 10⁶ cells/mL. Antibody containing supernatants were diluted 1:5 in flow buffer, and 40 µL cells plus 10 µL diluted antibody supernatant were incubated for 30 minutes at 4° C. Cells were washed with flow buffer and resuspended in 50 µL phycoerythrin (PE)-conjugated secondary antibody (Southern Biotech #2042-09) diluted in flow buffer to 1.25 µg/mL and incubated for 20 minutes at 4° C. After two wash steps, cells were resuspended in flow buffer and analyzed using a Guava easyCyte 8HT system. Table E1 summarizes the target binding activity of the anti-MSLN single domain antibodies as fold over background MFI signal.

Binder	fold over background MFI signal [fold over background]
B1	540
B4	422
B5	16.9
B6	194
B2	367
B7	87.3
B8	141
B9	78
